From patent publication EP4803539A2 come the findings set out here.

Assay [1] has as its target antigen of the 'Antigen binding ELISA' (not given). Briefly: Antigen binding ELISA of stressed sample; F15; initial (repeated from Table 37).
Assay [2] shares this target. Briefly: Antigen binding ELISA of stability sample; F15 without methionine; 5 °C 2 months (same value as Table 37).
The target is the same in assay [3]. Briefly: Antigen binding ELISA of stability sample; F18; 25 °C 2 months.
Assay [4] shares this target. Briefly: Antigen binding ELISA of stability sample; F18; 25 °C 1 month.
Assay [5] has the same target. Briefly: Antigen binding ELISA of stability sample; F15; 25 °C 2 months.
The target is the same in assay [6]. Briefly: Antigen binding ELISA of stability sample; F15 without methionine; initial (same value as Table 37).
For assay [7] the target is unchanged. Briefly: Antigen binding ELISA of stability sample; F0; 25 °C 1 month.
The target is the same in assay [8]. Briefly: Antigen binding ELISA of stability sample; F15; 25 °C 1 month.
Assay [9] has the same target. Briefly: Antigen binding ELISA of stressed sample; F18; initial (repeated from Table 41A).
Assay [10] has the same target. Nature of the assay: Antigen binding ELISA of stability sample; F0; initial (repeated from Table 37).
For assay [11] the target is unchanged. Nature of the assay: Antigen binding ELISA of stability sample; F0; 5 °C 2 months (same value as Table 37).
The target is the same in assay [12]. Briefly: Antigen binding ELISA of stressed sample; F15; 25 °C dark 7 days.
Assay [13] has the same target. Briefly: Antigen binding ELISA of stability sample; F15 without methionine; initial.
Assay [14] has the same target. Briefly: Antigen binding ELISA of stability sample; F18 with methionine; 5 °C 2 months.
Assay [15] has the same target. Nature of the assay: Antigen binding ELISA of stability sample; F18 with 10 mM methionine; initial.
For assay [16] the target is unchanged. Nature of the assay: Antigen binding ELISA of stability sample; F0; 25 °C 2 months.
The target is the same in assay [17]. Briefly: Antigen binding ELISA of stressed sample; F15; 3 freeze-thaw cycles.
Assay [18] has the same target. Briefly: Antigen binding ELISA of stability sample; F18 with methionine; initial (repeated from Table 41A).
For assay [19] the target is unchanged. Briefly: Antigen binding ELISA of stressed sample; F15; 25 °C 1000 lx 7 days.
For assay [20] the target is unchanged. Briefly: Antigen binding ELISA of stressed sample; F18; 3 freeze-thaw cycles.
For assay [21] the target is unchanged. Nature of the assay: Antigen binding ELISA of stressed sample; F18; 25 °C 1000 lx 7 days.
Assay [22] has the same target. Nature of the assay: Antigen binding ELISA of stressed sample; F18; 25 °C dark 7 days.

For the substance BAN2401 (antibody), the ELISA (Antigen binding ELISA), report result in assay [1] amounted to 102%; in assay [2], 123%; in assay [3], 97.8%; in [4], 97%; in assay [5] it was 96.9%; in assay [6], 102%. Besides, the ELISA (Antigen binding ELISA), report result was 103% in [7]; 104% in assay [8]; 108% in assay [9]; 101% in assay [10]; 103% in [11]; 107% in assay [12]. For the same substance, the ELISA (Antigen binding ELISA), report result amounted to 102% in assay [13]; 118% in [14]; 108% in [15]; 91.8% in [16]; 108% in assay [17]; 108% in assay [18]. Moreover, the ELISA (Antigen binding ELISA), report result is 101% in [19], 106% in [20], 109% in [21] and 105% in assay [22].
